B1: SSAP_178: SEQ ID NO: 347; Streptomyces sp. MZ04 (protein, listed as Streptomyces sp.)
chain: STNLAARVEARRQNPTTKQPARRGKAAQQPTLVQFVQSMRGEIARALPSHVASPERIARIALTELRRVDHLAECTQESFGGALMTCAALGLEPGGVGGEAYLLPFWNKKVRAYEVTLVIGYQGMVRLFWQHPAAAGLAAHTVHEGDEFDFEYGLEPFLRHKPARTGRGKPTDYYAVAKMANGGSAFVVMNVEDIEAIRHRSKARDAGPWSTDYGLRRHGAQDLHSAVVQVAAEVC
B2: SSAP_49: SEQ ID NO: 218 (protein)
chain: TNNQLATQTKRNITTDPSLLTGADIKKYFDPQNLLTEKQVGQALALCKGRNLNPFANEVYIVAYTNRNGGKEFSLIVSKEAFLKRAAQCKDYEGFEAGVVVVDSEGVMHERKGAIMLPEDTLIGGWARVHRKNFKVPVEIVVSREEYDKKQSTWNTMPATMIRKVALVNALREAFPEDLGNMYTEDDGGETFDRIKDVTPQESREDVVARKMAEIEQFNKEQETNHADPEPAQTEETIQGELLDGELEY
B3: SSAP_316: SEQ ID NO: 485; Companilactobacillus kedongensis (protein, listed as Companilactobacillus kedongensis)
chain: MKDLARIPVKELVRSDTIKSKFNDVLGKRAPQFISSIVNIVNSNQDLKNVDQTSVISSALVAASLDLPINQSFGYMYLVPYSGKAQPQMGYKGYIQLAQRSGQYKRLNAISVSKEKVPDKMVIFIPDYRMEEAETQIDMYQDHIEDVKAGRVEPTRCGKCDYCKSTAKLGKIVSMDDLID
B4: SSAP_5: SEQ ID NO: 174 (protein)
chain: ANELGIFSVDNLNMTTIKQYLDGGGKASDAELVLLINLCKQNNMNPFMKEVYFIKYGNQPAQIVVSRDFYRKRAFQNPNFVGIEVGVIVLNKDGVLEHNEGTFKTHEQELVGAWARVHLKNTEIPVYVAVSYDEYVQMKDGHPNKMWTNKPCTMLGKVAESQALRMAFPAEFSGTYGEEEYPEPEKEPREVNGVKEPDRAQIESFDKEDYAAKKIEELKEKAQPQKEVVEETGEVIDEEPLEGF
B5: SSAP_252: SEQ ID NO: 421; Bacteroides pyogenes DSM 20611 = JCM 6294 (protein)
chain: QVADPQSVLNSAVIAATLDLPINPNLGFAAIVPYNDRKSGKCIAQFQLMYKGLVELCLRSGQFASLIDEVVYEGQIVKKNKFTGEYIFDEDAKTSNKVIGYMAYFRLVNGFEKTFYMTSEEVTAHAKAYSQSFKSGYGVWKDNFDIMARKTVLKLLLSKYAPKSIEMQRAITFDQAAVKGDLTETNVDEAEIEYIDNESGSDKIKQAAEDAVIQSQQKTLL
modifications: Bacteroides pyogenes
B6: SSAP_270: SEQ ID NO: 439; Lactococcus sp. DD01 (protein, listed as Lactococcus sp.)
chain: ANLTPTQTVLKSDAAKRKFEEVLGKKTNGFVGSLLSLVGSTNLKNVDSNSVMTAAMKAATLDLPIEPSLGFAYVIPYGREAQFQIGYKGLIQLAIRSGQVTKLNAGPVYENQFIKYDSLFEELEIDFSMPQGVEIAGYFASMELANGFRKIIYWDKEKVTAHGKRFSKSFNRSSSPWQTDFDAMATKTVLKAMLSTYAPLSTEMQQAIVADNESATPKDATPVTDDLVLEAVEDSKQIEENEIINDQVASENYQEPQGEPEVLDLEL
B7: SSAP_134: SEQ ID NO: 303; Andreesenia angusta (protein, listed as Andreesenia angusta)
chain: SNLKNQLANKAGGTATKKQPQTMQDWIKVMEPQIKKALPSVITAERFTRMALTAISTNPKLAECTPESFMGALMNAAQLGLEPNTPLGQAYLIPYGKSVQFQVGYKGLMELAQRSGQFKSIYAHTVYENDEFEVEYGLTQNIVHKPNFDDRGKPIGFYAVYKLTNGGENFVFMTQREVEEFGKAKSKTFNNGPWKTDFEAMAKKTVLKQLLKYAPIKVEFQREIAQDATIKTEIAEDMTEVPEEMVEAEYEVVEQNTMAEDADLKGTPFETK
B8: SSAP_69: SEQ ID NO: 238 (protein)
chain: ETIDIKQELASQAQTDSKKEVKLTKAMSIAEMIKAMMPEIKRALPSMITPERFTRIALSALNNTPELQACTPMSFISALLNAAQLGLEINSPLGHAYLIPYKNKGVLECQFQIGYLGLIALAYRNELMQTIQAQCVYENDEFLYEYGLNPKLVHRPATSDRGEPVFFYGLFKMINSGFGFCVMSKQEMDEFARTYSKGLASSFSPWKTSYNEMAKKTVIKQALKYAPIKTDFQKALSTDESIKYAISEDMTEAVNEIVSQNTEVA
B9: SSAP_17: SEQ ID NO: 186 (protein)
chain: ATNDELKNQLANKQNGGQVASAQSLDLKGLLEAPTMRKKFEKVLDKKAPQFLTSLLNLYNGDDYLQKTDPMTVVTSAMVAATLDLPIDKNLGYAWIVPYKGRAQFQLGYKGYIQLALRTGQYKSINVIEVRDGELLKWNRLTEEIELDLDNNTSEKVIGYCGYFQLINGFEKTVYWTRKEIEAHKKKFSKSDFGWKKDYDAMAKKTVLRNMLSKWGILSIDMQTAVTEDEAEPRERKDVTEDESIPDIIDAPITPSDTLEAGSEVQGSMI
B10: SSAP_138: SEQ ID NO: 307; unclassified Coprococcus (protein, listed as Coprococcus sp.)
chain: ANNIDLKQELAEQASKVPAKKDEEVKLTKSMTIPDMVKAMMPEIKKALPAVMTPERFTRIALSALNTTPALNQCTPMSFLAALMNAAQLGLEPNTPLGQAYLIPYKNHGTLECQFQIGYKGLIELAYRSGQMQTIQAQTVYENDEFAYQYGLEPVLVHRPAYSDRGEVKYFYGIFKTVNGGYGMAVMSRAEMDLYAKTYSKAYDSSYSPWKSNYEDMAKKTVIKQALKYAPIKTDFQRALSFDETIKKEISLDMSTVKNELLDVA
B11: SSAP_102: SEQ ID NO: 271; Halomonas coralii (protein, listed as Halomonas coralii)
chain: TDQATAEPQEDLGKQLQQHSQRKPMPTTIQGMLKDDRFTGQIARALPKHITPDRISRIALTEVNKTPALGKCDPMSLFGSIIQSAQLGLELGGALGHAYLVPYKDQAQFIIGYRGMIDLARRSGQMVSLQAHTVHENDDFEFEYGLDEKLRHVPARGQRGPMIAVYAVAKLTGGGHQIEVMWKEDVDAIRQQSKAGNSGPWRDHYEEMAKKTAIRRLFKYLPVSVEMQKAVSLDEQAEAGVQDNNVFDGEFSYQEPE
B12: SSAP_22: SEQ ID NO: 191 (protein)
chain: SNELMTKAVTYEVNNEEVKLSGQIVKQYLTSGQAVTDQEVTMFIQLCRYQHLNPFLNEAYLVKFNGKPAQIITSKEAFMKRAESNPNYAGLKAGCIVERNGELIYTEGAFTLKTDNILGAWADVIRKDRREPTHVEISMDEFSKSQATWKSMPATMIRKTAIVNALREAFPQDLGALYTEDDKNPNEATQTTYKQEPEVNTTKTADVLAKKFSGAPQIKSVENVQESEEESNNASNHGEATEPVNNVEEPTATAEVEQGQLL

Key:
Format in all cases: cell-based
gene editing with Cas9 = experiment: Screen of 322 new SSAP proteins, gene editing activity with Cas9 (Table 5); parameters: Cas9 with SSAP activity: scale not given here
Procedure, shortened: (§1)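 Read-out is gene editing activity. Candidates come from sequence data mining, are made synthetically, and are tested alongside either nuclease-active Cas9 or catalytically dead dCas9.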

gene editing with dCas9 = experiment: Screen of 322 new SSAP proteins, gene editing activity with dCas9 (Table 5); parameters: dCas9 with SSAP activity: scale not given here
Procedure, shortened: as §1

[1] = system: gene editing with Cas9 and dCas9; experiment: Screen of 322 new SSAP proteins, activity across all experiments (Cas9 and dCas9, Table 5); parameters: scale not given here
Procedure, shortened: as §1

| Molecule | Cas9 with SSAP activity (gene editing with Cas9) | Cas9 with SSAP activity (normalized) (gene editing with Cas9) | dCas9 with SSAP activity (gene editing with dCas9) | dCas9 with SSAP activity (normalized) (gene editing with dCas9) | Activity across all experiments [1] |
| --- | --- | --- | --- | --- | --- |
| B1 | −1.057 | −0.929 | −0.807 | −0.626 | −0.932 |
| B2 | −0.515 | −0.176 | −0.987 | −0.289 | −0.751 |
| B3 | 0.465 | 0.410 | −0.764 | −0.279 | −0.150 |
| B4 | −0.026 | −0.032 | −0.854 | −0.392 | −0.440 |
| B5 | −0.275 | −0.560 | −0.876 | −0.635 | −0.575 |
| B6 | 0.154 | 0.174 | −0.896 | −0.293 | −0.371 |
| B7 | −1.284 | −1.104 | −1.053 | −0.424 | −1.168 |
| B8 | −5.286 | −0.810 | −0.742 | −0.240 | −3.014 |
| B9 | −0.287 | −0.195 | −1.088 | −0.491 | −0.687 |
| B10 | −1.429 | −0.887 | −1.000 | −0.320 | −1.214 |
| B11 | −0.118 | −0.065 | −0.784 | −0.325 | −0.451 |
| B12 | 1.789 | 4.337 | −0.792 | −0.867 | 0.498 |
